The source of these data is patent CN111662379A (JIANGSU DISEASE CONTROL AND PREVENTION CENTER JIANGSU …, dated 2020).

The target in experiment [1] is 重组SARS-CoV-2刺突蛋白胞外区 (extra cellular domain of spike protein, S-ECD) (SARS-CoV-2, UniProt P0DTC2 14-1213). Briefly: SPR, Biacore 8K, S-ECD immobilised on a CM5 chip, antibody injected at 125nM~7.8nM.
In experiment [2] the target is SARS-CoV-2 S蛋白 (on live virus, 江苏分离株 BetaCoV/JS03/human/2020) (SARS-CoV-2, UniProt P0DTC2 14-1273). In words: cell-based or functional assay.
The target of experiment [3] is 重组SARS-CoV-2刺突蛋白胞外区 (extra cellular domain of spike protein, S-ECD) (SARS-CoV-2, UniProt P0DTC2 14-1213). In words: SPR, Biacore 8K, S-ECD immobilised on a CM5 chip, antibody injected at 125nM~7.8nM. The source holds these as a separate data set.

B1: FC08 (antibody, V domains shown)
VH: VQLLQQSGAEVKKPGSSVKVSCKASGGTFSSYAISWVRQAPGQGLEWMGGIIPILGIANYAQKFQGRVTITADKSTSTAYMELSSLRSEDTAVYYCVRERGYSGYGAAYYFDYWGQGTLVTVSS
VL: QSVLTQPPSVSGAPGQRVTISCTGSSSNIGAGYDVHWYQQLPGTAPKLLIYGNSNRPSGVPDRFSGSKSGTSASLAITGLQAEDEADYYCQSYDSSLSGSVFGGGTKLTVL
B1 came in with a Kd in experiment [1] of 0.8 nM.

B2: FC05 (antibody, V domains shown)
VH: VQLLEQSGAEVKKPGASVRVSCKVSGYTLPEVAMHWVRQAPGKGLEWMGGFDPEDGETIYAQKFQGRVTMTEDTSTDTAYMELSSLRSEDTAVYYCATTTPFSSSFWFDPWGQGTLVTVSS
VL: QSVLTQAPSVSGAPGQKVTISCSGSSSNIGNNYVSWYQQLPGTAPKLLIYDNNKRPSGIPDRFSGSKSGTSATLGITGLQTGDEADYYCGTWDSSLSAVVFGGGTKLTVL
Take B2: the “IC50 (体外中和实验, live SARS-CoV-2 on Vero E6 cells, cytopathic effect)” value in experiment [2] came to 0.142 µg/mL.

B3: FC11 (antibody, V domains shown)
VH: EVQLLESGGGVVQPGRSLRLSCAASGFTFSYYGMHWVRQAPGTGLEWVAVISYDGSNEYYADSVKGRFTISRDNSKNTLYLQMNSLRAEDTAVYYCAKAMFLGDSSGLTGLDMDVWGQGTTVTVSS
VL: DIELTQSPGTLSLSPGERATLSCRASQSVSSYLAWYQQKPGQAPRLLIYDASNRATGIPARFSGSGSGTDFTLTISSLEPEDFALYYCQQRGNWPPTFGGGTKLEIK
notes: also called FC11抗体
The molecule B3 displayed a dissociation constant (Kd) in experiment [3] of 0.5 nM. This lies in the sub-nanomolar range.
